Measurements taken from the supplement of paper PMC9170038.

Tested on: MS2 coat protein
Assay: apparent KD of MS2 coat protein; designed switch direction (-1 OFF switch, 1 ON switch): -1; higher = weaker reporter binding
Summary of the method: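 Three titration conditions were used: no input, 200 uM small-molecule ligand, and an oligonucleotide input. In each, SNAP-549-labelled MS2 coat protein was raised from 0.7 or 1.5 nM, doubling, to 3 µM over designed RNA switches transcribed on Illumina chips by stalled E. coli RNA polymerase. Curve fits of normalised cluster fluorescence gave values whose per-design median over clusters is the apparent KD.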

[1] = input ligand: microRNA oligo, concentration not stated
[2] = Eterna round: R95, input ligand: microRNA oligo, concentration not stated
[3] = Eterna round: R95, input ligand: FMN 200 uM
[4] = Eterna round: R95, input ligand: none

Sequence	apparent KD of MS2 coat protein (input ligand: FMN 200 uM) [nM]	apparent KD of MS2 coat protein [1] [nM]	apparent KD of MS2 coat protein (input ligand: none) [nM]	apparent KD of MS2 coat protein [2] [nM]	apparent KD of MS2 coat protein [3] [nM]	apparent KD of MS2 coat protein [4] [nM]
ACAUGAGGAUCACCCAUGUCAGGCUGGUCCGCUCCGGCUGUUGAGGAUAUAGCACGGUAUCCGCGCUAGAAGGUGAGGGCCGGC [Aenatbe mod 30] (Eterna round: R96, puzzle: Exclusion NG 3)	21.6	18	22.5			
CUGGUGUGAGGAUAUCAGGACACGCCCGCGGACGUGUCAAAUGAGAAGGCACAUGAGGAUCACCCAUGUGGGAC [Onzausin] (puzzle: Exclusion 4)				31.7		
CGCCUCAGAGGAUAUACUACGGUUUCCUCAUGAUGCGGCCAACAUGAGGAUCACCCAUGUAGAAGGCUGAGAAA [EX2 A.5] (Eterna round: R97, puzzle: Exclusion 2)	17.3		52.2			
ACUUACUGAGGAUAUACAUAGAUUUACAUGAGGAUCACCCAUGUUCCUCUAUGUAUAUAUGUAGAAGGCAGAAGAU [Mat - Exclusion 5 - JL Mod - D34] (Eterna round: R97, puzzle: Exclusion 5)	56.9		18.9			
UUUAUAUAGUAAGGAUAUGUAUUAAUUUUAUCAACAGAAGGUACUGACAUGAGGAUCACCCAUGUUUUAGUGUGGGCAUGUAGU [JMF's solution 93] (Eterna round: R96, puzzle: Exclusion NG 1)	543	493	536			
UAGAAAGGUAAGGAUAUCCAUGUGAAAUAAAGAGGAGAAGGUACCACAUGAGGAUCACCCAUGUGGCUCUCAAA [jl-ex6-4.54 Nando mod] (Eterna round: R97, puzzle: Exclusion 6)	13.8		14.7			
AUUUUGUCAGGAUAUUGUUAGUUUAGUUGUUUGUAUUAGUUCGAGAAGGGACAUGAGGAUCACCCAUGUGAUUU [Ex4 #74] (Eterna round: R97, puzzle: Exclusion 4)	135		114			
CAGGAGUCACGAGGAUAUCUGGCUAAACGAACGAGAGAAGGUGUAGACUACCACAUGAGGAUCACCCAUGUUAUGACUAUACUA [Eternabot solution 30] (Eterna round: R96, puzzle: Exclusion NG 1)	14.8	9.94	17.1			
AAAUUGUGAGGAUAUUCGUAGUACUCGGAGACGAGUAUUACGGAGAAGGCACAUGAGGAUCACCCAUGUUCCUU [Mat - Exclusion 4 - JL Mod - D20] (Eterna round: R97, puzzle: Exclusion 4)	88.3		16.3			
GGUGGACAUGAGGAUCACCCAUGUGAGGAUAUCGGCUGGUGCGUGGUGGCUGGCAUCUCGAGAAGGCACAUAGU [Exclusion 1 V67] (puzzle: Exclusion 1)				70.5		
AGAAAGCAAGGAUAUACAAGGAAACGACGGAAAGUAGAGAGACAUGAGGAUCACCCAUGUAGAAGGUGCGAGAG [JR_Exclu2_Sub033] (puzzle: Exclusion 2)				24.5	32.1	29.1
AACAGUACAGGAUAUACAUGAGGAUCACCCAUGUGACAAUUAAGUGGCGUACCACAAAGUAGAAGGGUACUGGA [Ruby 86] (Eterna round: R96, puzzle: Exclusion 3)	206	24.3	31			
AUGGCGUUAGGAUAUACUAUGGGCCUGGACAGUGCACCUCCACAUGAGGAUCACCCAUGUAGAAGGAACUCGAG [Eternabot (L2) Solution 99] (Eterna round: R97, puzzle: Exclusion 2)	26.9		20.8			
AGUAGGUCUACCUUGGUGGAUCUGCAUUUAUGCAAGUGUACAUGAGGAUCACCCAUGUCCUCAUUUGCUCGUCUUAU [JL turnoff v2 99.26] (puzzle: Sensor v3, turn-off variant 2)				432	95	103
AUCAGCUCGUCAGGAUAUACAUGAGGAUCACCCAUGUGAUCAAUAGCAGCUUCGGCUGCAUACAUGUAGAAGGGACGAGCUGAU [ENG2/6-B3] (Eterna round: R96, puzzle: Exclusion NG 2)	50	234	821			
UCAUGUCCAGAGGAUAUGUAGCGGAUAAACGCAACAGAAGGCUGGACAUGAGGAUCACCCAUGUGUGCCUUCUA [Exclusion 6 Mod3 of JL of Mod of Letion by ViennaUCT] (Eterna round: R97, puzzle: Exclusion 6)	81.3		227			
UGUAACCUAGGAUAUACAUGAGGAUCACCCAUGUAAUGUAGUAUAGUGUGUGUGAGGUGUAGAAGGUGGGAUGU (Eterna round: R97, puzzle: Exclusion 3)	60.4		60.2			

Sequence	apparent KD of MS2 coat protein (input ligand: FMN 200 uM) [nM]	apparent KD of MS2 coat protein [1] [nM]	apparent KD of MS2 coat protein (input ligand: none) [nM]	apparent KD of MS2 coat protein [2] [nM]	apparent KD of MS2 coat protein [3] [nM]	apparent KD of MS2 coat protein [4] [nM]
AUUUAAUUUAAUAAGAUCACAUGAGGAUCACCCAUGUUAUAAUAGGAUAUCAGCUCGAAUAGAGCUGAGAAGGAUUAUAACAUG [ExNG3/9-A4] (Eterna round: R96, puzzle: Exclusion NG 3)	17.2	138	29			
CGCCUCAGCACAUGAGGAUCACCCAUGUACAAAAGUCCCAGGGAGGAUAUCUGCUGGUUGACUAGAGAGAAGGCCCAUACUAAC [Eternabot solution 45] (Eterna round: R96, puzzle: Exclusion NG 3)	42.6	36.6	45			
UUUUGGCAUGUAGGAUAUGGGUCCGAUUAGGAUUUAGAAGGACAUGAGGAUCACCCAUGUGCCCUUACUUGGUCUUUUUUUUUU [EXclNG1-LROPPY18] (Eterna round: R96, puzzle: Exclusion NG 1)	52.3	19.2	41.2			
CUUUUGUGAGGAUAUCAGUAGUAAUACAAUAGUAUUAUUACUGAGAAGGCACAUGAGGAUCACCCAUGUUCCUC [Ex4 344 Omei mod 7] (puzzle: Exclusion 4)				38.6		
GUGAGGGAGUGAGGAUAUCAGGGAGAUAAGAAAUGAGAAGGUACAUGAGGAUCACCCAUGUAAGAGUAGGGAAGAGAGAAGAGU [Default title] (Eterna round: R96, puzzle: Exclusion NG 1)	69.3	31.6	66.7			
UCGGUGACAGGAUAUACAUGAGGAUCACCCAUGUUAAGAAGAGAAAGGGCAGGAAGAGGUAGAAGGGUCGCUGU [JL JR_Exclu3_Sub033 mod] (puzzle: Exclusion 3)				37.8		
CAUGGAACGUAGGAUAUCUCGCGGCUAGGCUGCAGAGAAGGACGCACAUGAGGAUCACCCAUGUGUGAUCCAAA [Tibiataus] (puzzle: Exclusion 6)				17	27.6	21.9
UUAAUAUAUGUAGGAUAUGCGUGGCGAAGCUAUGCAGAAGGACAUGAGGAUCACCCAUGUUCCAGCGUCCGCGUACGGAUGCAA [JL Eng1 1.21 mod 11] (Eterna round: R96, puzzle: Exclusion NG 1)	16	12.3	13.3			
CAUGUAAGUCGUUGAUCCAACAUGAGGAUCACCCAUGUCACUUUAGCUUUUUGCUCGUCUUAUCCUCCUUUGUUCAC [JR_STOV1_v2_Sub0100] (Eterna round: R97, puzzle: Sensor, turn-off variant 1)	482		1060			
AUUUAGCAAGCGUGAUCCUACAUGAGGAUCACCCAUGUAGUUCGUCUUAUUUGAAGACAACACAAAAGUGUUGUCUU [Omei Mir OFFv1 B8] (Eterna round: R97, puzzle: Sensor, turn-off variant 1)	355		212			
CUCUAGUCAGGAUAUUAGUUGCCGCCUGGCAACAGGCGGCAUGAGAAGGGACUUGAGGAUCACCCAAGUAAAAG [Rabebete] (Eterna round: R97, puzzle: Exclusion 4)	66.1		368			
UGUUGUCGCGCAGGAUAUGAGGAUCACCCAUAUAGAGGAUAUGAAAAGAAGGCUCUGAGGAUUACCCAGAAGGGCGGGACAACU [pwkr exNG2 2xF5 2xFMN.21] (Eterna round: R96, puzzle: Exclusion NG 2)	1660	152	179			
CCAACCAGAGGAUAUGCGCAUAGAUCAGACUUUGUUUCUGAACAUGAGGAUCACCCAUGUAGAAGGCUGUAACC [Ex2 #86] (Eterna round: R97, puzzle: Exclusion 2)	26		27.3			
AGCCUACAUGAGGAUCACCCAUGUCAGGAUAUCUCGCAACGUGUCAAGUUCACGUCGCAGAGAAGGGACUCGGG [Tienberi] (puzzle: Exclusion 1)				51.9		
GGUUAUUGCAAGGAUAUGCUUUUUUUUGAAAUUGCAGAAGGUGCAACAUGAGGAUCACCCAUGUUGGAUGGGUU [JR_E6_Sub018] (puzzle: Exclusion 6)				106		
UUUGUUUAUGUAGGAUAUGCCUGGCGUGCCUUCGCAGAAGGACAUGAGGAUCACCCAUGUAUUGCGGUCUGCGUUCAGAUCGCA [salish99_ExNG1_r4_031] (Eterna round: R96, puzzle: Exclusion NG 1)	72.6	30	42.5			
GCCAGAGCAGGAUAUUCAAUAUCUCACAUGAGGAUCACCCAUGUCCAUCGAAAGAUGGAGGGAGAAGGGCUCUGGC [Mat - Exclusion 5 - Eli mod - D92] (puzzle: Exclusion 5)				45.5	37.3	64.7
